Assay results taken from US7053177B1, “Random peptides that bind to gastro-intestinal tract (GIT) transport receptors and related methods” (Cytogen Corporation, priority 1997, dated 2006).
Ends that are not written are not given here. Peptide text beside a SMILES is read from it. * marks the point of attachment. Dansyl = CN(C)c1cccc2c(S(=O)(=O)*)cccc12

What was measured:
[1] = tested on: P100 membrane fraction of Caco-2 cells; experiment: Dansylated peptide ELISA: relative binding of PAX2 and HAX42 peptides to P100 fractions (ratio to ZElan021); conditions: PAX2 peptides, ratio to ZElan021 = 1.00
Experimental: The peptides and proteins were analyzed by a dansylated peptide ELISA method in which 96 well plates were coated overnight at 4° C. with 100 μl/well coating protein (normally 100 μg/ml P100 membrane fraction) in 0.05M carbonate buffer pH9.6. Nonspecific binding was blocked using 200 μl/well, 2% Marvel/PBS for 2 hours at 37° C. prior to incubation with dansylated peptides. The plates were washed three times with PBS/0.05% Tween 20 and after each subsequent incubation step. […] A buffer blank control was included to ensure that background binding to plastic was not due to the antibodies used in the assay system. […] Plates were developed using 75 μl/well Bionostics TMB substrate and incubated for approximately 10 minutes. The developing reaction was stopped using Bionostics Red Stop solution (25 μl/well), and the optical density of the plates was read at 650 nm. […]

[2] = biological target: bovine serum albumin (bovine) (UniProt P02769); experiment: phage ELISA on coated BSA
Sequence of bovine serum albumin (bovine) (P02769 25-607 limits assumed): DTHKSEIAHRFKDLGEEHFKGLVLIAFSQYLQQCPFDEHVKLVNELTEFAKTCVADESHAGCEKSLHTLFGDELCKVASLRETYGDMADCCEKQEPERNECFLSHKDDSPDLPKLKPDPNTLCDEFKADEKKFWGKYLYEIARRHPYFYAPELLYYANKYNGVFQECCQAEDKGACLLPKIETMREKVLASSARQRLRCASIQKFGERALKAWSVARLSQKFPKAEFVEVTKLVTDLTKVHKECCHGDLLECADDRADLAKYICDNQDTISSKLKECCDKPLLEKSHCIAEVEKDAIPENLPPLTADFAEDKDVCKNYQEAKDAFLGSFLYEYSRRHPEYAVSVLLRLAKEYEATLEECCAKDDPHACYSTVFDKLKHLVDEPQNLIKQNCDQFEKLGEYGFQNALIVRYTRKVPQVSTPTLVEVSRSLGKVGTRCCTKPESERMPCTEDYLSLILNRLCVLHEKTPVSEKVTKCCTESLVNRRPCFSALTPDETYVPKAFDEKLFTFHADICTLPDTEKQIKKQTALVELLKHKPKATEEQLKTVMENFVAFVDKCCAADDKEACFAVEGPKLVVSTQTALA

In the case of `CC(C)C[C@H](NC(=O)[C@H](CCCNC(=N)N)NC(=O)[C@H](CCCNC(=N)N)NC(=O)[C@H](CC(N)=O)NC(=O)[C@H](Cc1c[nH]cn1)NC(=O)[C@H](CO)NC(=O)[C@H](CO)NC(=O)[C@H](Cc1c[nH]cn1)NC(=O)[C@H](CCCCN)NC(=O)[C@H](C)NC(=O)[C@H](CC(N)=O)NC(=O)[C@@H](NC(=O)[C@@H](N)CCCCNS(=O)(=O)c1cccc2c(N(C)C)cccc12)[C@@H](C)O)C(=O)N[C@@H](CCCNC(=N)N)C(=O)N[C@H](C(=O)N[C@@H](CCCNC(=N)N)C(=O)N[C@@H](CO)C(=O)N[C@@H](CCCNC(=N)N)C(=O)N1CCC[C@H]1C(=O)N[C@@H](CC(N)=O)C(N)=O)[C@@H](C)O` [ZElan032] (H-K(Dansyl)TNAKHSSHNRRLRTRSRPN-NH2), the “Binding value at 50 μg/ml” value ([1]; first column) is reported as 0.95.

In the case of `CC(C)C[C@H](NC(=O)[C@H](CCCNC(=N)N)NC(=O)[C@H](CCCNC(=N)N)NC(=O)[C@H](CC(N)=O)NC(=O)[C@H](Cc1c[nH]cn1)NC(=O)[C@H](C)NC(=O)[C@H](CO)NC(=O)[C@@H](N)CCCCNS(=O)(=O)c1cccc2c(N(C)C)cccc12)C(=O)N[C@@H](CCCNC(=N)N)C(=O)N[C@H](C(=O)N[C@@H](CCCNC(=N)N)C(N)=O)[C@@H](C)O` [ZElan074] (H-K(Dansyl)SAHNRRLRTR-NH2), the “Binding value at 20 μg/ml” value ([1]; first column) is reported as 0.06, the “Binding value at 50 μg/ml (Jackson Ab)” value [1] is reported as 0.71 and the “Binding value at 50 μg/ml (Southern Ab)” value [1] is reported as 0.48. The “Binding value at 50 μg/ml” value ([1]; first column) was 0.82 and the “Binding value at 50 μg/ml” value ([1]; second column) was 0.52.

With `CC(C)C[C@H](NC(=O)[C@H](CCCNC(=N)N)NC(=O)[C@H](C)NC(=O)[C@H](CC(N)=O)NC(=O)[C@H](Cc1c[nH]cn1)NC(=O)[C@H](CO)NC(=O)[C@H](CO)NC(=O)[C@@H](N)CCCCNS(=O)(=O)c1cccc2c(N(C)C)cccc12)C(=O)N[C@@H](CCCNC(=N)N)C(=O)N[C@H](C(=O)N[C@@H](CCCNC(=N)N)C(N)=O)[C@@H](C)O` [ZElan077] (H-K(Dansyl)SSHNARLRTR-NH2) the “Binding value at 20 μg/ml” value ([1]; first column) was 0.20, the “Binding value at 50 μg/ml (Jackson Ab)” value [1] was 0.73 and the “Binding value at 50 μg/ml (Southern Ab)” value [1] was 0.52. For the same molecule, the “Binding value at 50 μg/ml” value ([1]; first column) was 0.76 and the “Binding value at 50 μg/ml” value ([1]; second column) was 0.54.

In the case of `CC(C)C[C@H](NC(=O)[C@H](CCCNC(=N)N)NC(=O)[C@H](CCCNC(=N)N)NC(=O)[C@H](CC(N)=O)NC(=O)[C@H](C)NC(=O)[C@H](CO)NC(=O)[C@H](CO)NC(=O)[C@@H](N)CCCCNS(=O)(=O)c1cccc2c(N(C)C)cccc12)C(=O)N[C@@H](CCCNC(=N)N)C(=O)N[C@H](C(=O)N[C@@H](CCCNC(=N)N)C(N)=O)[C@@H](C)O` [ZElan075] (H-K(Dansyl)SSANRRLRTR-NH2), the “Binding value at 20 μg/ml” value ([1]; first column) is reported as 0.13, the “Binding value at 50 μg/ml (Jackson Ab)” value [1] is reported as 0.47 and the “Binding value at 50 μg/ml (Southern Ab)” value [1] is reported as 0.32. The “Binding value at 50 μg/ml” value ([1]; first column) was 0.52 and the “Binding value at 50 μg/ml” value ([1]; second column) was 0.38.

`CC(C)C[C@H](NC(=O)[C@H](CCCNC(=N)N)NC(=O)[C@H](CO)NC(=O)[C@@H](NC(=O)[C@H](CCCCN)NC(=O)[C@H](CC(N)=O)NC(=O)[C@H](CCCNC(=N)N)NC(=O)[C@@H](NC(=O)[C@H](CC(N)=O)NC(=O)[C@H](CCCNC(=N)N)NC(=O)[C@@H](N)CCCCNS(=O)(=O)c1cccc2c(N(C)C)cccc12)[C@@H](C)O)[C@@H](C)O)C(=O)N[C@@H](CO)C(=O)N[C@@H](C)C(=O)N[C@@H](CC(N)=O)C(=O)N1CCC[C@H]1C(=O)N[C@@H](Cc1c[nH]cn1)C(=O)N[C@@H](CCCNC(=N)N)C(=O)N[C@@H](CO)C(=O)N[C@@H](Cc1c[nH]cn1)C(=O)N[C@@H](CCCNC(=N)N)C(N)=O` [ZElan084] (H-K(Dansyl)RNTRNKTSRLSANPHRSHR-NH2) was tested, and the “Binding value at 20 μg/ml” value ([1]; second column) was 0.93 and the “Binding value at 50 μg/ml” value ([1]; second column) was 0.77.

With SGGEVSSWGRVNDLCARVSWTGCGTARSARTDNKGFLPKHSSLR [phage SNi45] the OD [2] was 0.056 OD 650 nm.

Work on SGFWEFSRGLWDGENRKSVRSGCGFRGSSAQGPCPVTPATIDKH [phage DAB30] yielded an OD [2] of 0.121 OD 650 nm.

For RTFENDGLGVGRSIQKKSDRWYASHNIRSHFASMSPAGK (peptide, not shown: large carriers) [phage PAX14], the OD [2] was 0.139 OD 650 nm.

In the case of SGRTTSEISGLWGWGDDRSGYGWGNTLRPNYIPYRQATNRHRYT [phage DCX26], the OD [2] is reported as 0.213 OD 650 nm.

In the case of SPCGGSWGRFMQGGLFGGRTDGCGAHRNRTSASLEPPSSDY [phage SNi34], the OD [2] is reported as 0.115 OD 650 nm.

SPKLSSVGVMTKVTELPTEGPNAISIPISATLGPRNPLR (also: displayed as N-terminal pIII fusion on M13 phage) [phage SNiAX8] gave an OD [2] of 0.068 OD 650 nm.

In the case of RGAADQRRGWSENLGLPRVGWDAIAHNSYTFTSRRPRPP [phage SNi38], the OD [2] is reported as 0.076 OD 650 nm.

Molecule REWRFAGPPLDLWAGPSLPSFNASSHPRALRTYWSQRPR [phage DAX23] has an OD [2] of 0.153 OD 650 nm.

In the case of SWTRWGKHTHGGFVNKSPPGKNATSPYTDAQLPSDQGPP (peptide, not shown: large carriers) [phage PAX16], the OD [2] is reported as 0.171 OD 650 nm.

RSGAYESPDGRGGRSYVGGGGGCGNIGRKHNLWGLRTASPACWD [phage S15] showed an OD [2] of 0.053 OD 650 nm.

In the case of SHPWYRHWNHGDFSGSGQSRHTPPESPHPGRPNATI [phage DAX27], the OD [2] is reported as 0.424 OD 650 nm.

With SKSGEGGDSSRGETGWARVRSHAMTAGRFRWYNQLPSDR [phage DAB10] the OD [2] was 0.153 OD 650 nm.

B1: phage SNiAX6 (peptide)
peptide: RTTTAKGCLLGSFGVLSGCSFTPTSPPPHLGYPPHSVN
modifications: cysteine pairing not given here; also: displayed as N-terminal pIII fusion on M13 phage
Work on B1 yielded an OD [2] of 0.056 OD 650 nm.

RWNWTVLPATGGHYWTRSTDYHAINNHRPSIPHQHPTPI [phage DCX33] showed an OD [2] of 0.103 OD 650 nm.

Work on SHSGGMNRAYGDVFRELRDRWNATSHHTRPTPQLPRGPN [phage SNi28] yielded an OD [2] of 0.113 OD 650 nm.

B2: phage SNiAX2 (peptide)
peptide: SDSDGDHYGLRGGVRCSLRDRGCGLALSTVHAGPPSFYPKLSSP
modifications: cysteine pairing not given here; also: displayed as N-terminal pIII fusion on M13 phage
In the case of B2, the OD [2] is reported as 0.065 OD 650 nm.

RWCGAELCNSVTKKFRPGWRDHANPSTHHRTPPPSQSSP [phage DAB3] gave an OD [2] of 0.072 OD 650 nm.

RWCGADDPCGASRWRGGNSLFGCGLRCSAAQSTPSGRIHSTSTS [phage DAB7] showed an OD [2] of 0.09 OD 650 nm.

In the case of SVGNDKTSRPVSFYGRVSDLWNASLMPKRTPSSKRHDDG [phage DCX45], the OD [2] is reported as 0.075 OD 650 nm.

RMEDIKNSGWRDSCRWGDLRPGCGSRQWYPSNMRSSRDYPAGGH [phage DAX24] was tested, and the OD [2] was 0.118 OD 650 nm.

Work on SSSSDWGGVPGKVVRERFKGRGCGISITSVLTGKPNPCPEPKAA [phage S22] yielded an OD [2] of 0.061 OD 650 nm.

In the case of RSSANNCEWKSDWMRRACIARYANSSGPARAVDTKAAP [phage DAB18], the OD [2] is reported as 0.085 OD 650 nm.

SESGRCRSVSRWMTTWQTQKGGCGSNVSRGSPLDPSHQTGHATT [phage DAX15] gave an OD [2] of 0.101 OD 650 nm.

Molecule RVGQCTDSDVRRPWARSCAHQGCGAGTRNSHGCITRPLRQASAH [phage SNi10] has an OD [2] of 0.051 OD 650 nm.

SKWSWSSRWGSPQDKVEKTRAGCGGSPSSTNCHPYTFAPPPQAG [phage DAB24] was tested, and the OD [2] was 0.441 OD 650 nm.
